Columns and labels:
[1] = biological target: Aβ1-17, the 17 first amino acids of Aβ (UniProt P05067); assay: concentration-dependent binding of recombinant netrin-1 to the peptide; format not stated
[2] = biological target: Aβ1-40 (UniProt P05067); assay: concentration-dependent binding of recombinant netrin-1 to the Aβ peptide; format not stated

Kd [1]: 30 nM
Kd [2]: 22 nM
Substance: recombinant netrin-1 (species not stated) (ligand)
